From publication PMC8167055

Legend:
[1] = molecular target: LC3B (Homo sapiens) (UniProt Q9GZQ8); settings: cited from earlier work
[2] = molecular target: LC3B fused with mCherry (microtubule-associated protein light chain 3) (human) (UniProt Q9GZQ8); assay: ELISA; plate coated with 5 μg/ml mCherry-LC3B in PBS, blocked with BSA; serial dilutions of TPPP/p25 forms or SYN; detected by TPPP/p25 or SYN antibodies; apparent Kd from hyperbola with a single binding site

Row | Kd [2] [nM] | Substance | Kd [1] [nM]
1 |  | SQSTM1/p62 (from UniProt Q13501) | 1500
2 | 21.5 | Tubulin Polymerization Promoting Protein (TPPP/p25), human recombinant with hexaHis tag (from UniProt O94811 1-219) (natural protein; other documents disagree on this pair) | 
